From publication PMC4346919 (2015)

B1: biotin-labeled ALG-2 [modified: biotin-labeled; biotin-labeled] [human] / GST-SGG-linker-8xHis fused with the eight-residue Sec31A peptide (NPPPPGFI), wild type [human] (parent complex)
chain 1: MAAYSYRPGPGAGPGPAAGAALPDQSFLWNVFQRVDKDRSGVISDTELQQALSNGTWTPFNPVTVRSIISMFDRENKAGVNFSEFTGVWKYITDWQNVFRTYDRDNSGMIDKNELKQALSGFGYRLSDQFHDILIRKFDRQGRGQIAFDDFIQGCIVLQRLTDIFRRYDTDQDGWIQVSYEQYLSMVFSIV
chain 2: NPPPPGFI

Variants of: B1
Assay: far-Western blot (FW), signal intensity measured with ImageJ; n = 4; read off a plot
In the case of chain 2 I8G, the percent of parent is reported as ~9 % of WT.
With chain 2 P5L the percent of parent was ~55 % of WT.
With chain 2 P4A the percent of parent was ~42 % of WT.
chain 2 N1P was tested, and the percent of parent was ~100 % of WT.
